Source: patent publication US20260049105A1, “SELECTIVE MC4R LIGAND FOR TREATING OBESITY AND COGNITIVE LOSS” (ARIZONA BOARD OF REGENTS ON BEHALF OF THE UNIVERSITY OF …, priority 2022, published 2026)
Read-outs that look alike come from different tables or passages of the source.

Experiments:
[1] = target: human melanocortin 1 receptor (human) (UniProt Q01726); assay: cell-based or functional assay
[2] = target: human melanocortin 3 receptor (human) (UniProt P41968); assay: cell-based or functional assay
human melanocortin 3 receptor (human), sequence (P41968 whole entry): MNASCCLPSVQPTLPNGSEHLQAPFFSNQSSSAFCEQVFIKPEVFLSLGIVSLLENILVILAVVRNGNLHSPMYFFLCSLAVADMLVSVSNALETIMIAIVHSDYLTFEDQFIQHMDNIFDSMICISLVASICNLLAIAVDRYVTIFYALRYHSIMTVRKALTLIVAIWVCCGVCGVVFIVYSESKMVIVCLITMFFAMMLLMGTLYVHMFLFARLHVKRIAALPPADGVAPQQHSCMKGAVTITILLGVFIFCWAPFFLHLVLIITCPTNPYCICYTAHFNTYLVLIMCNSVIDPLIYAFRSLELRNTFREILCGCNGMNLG

[3] = target: human melanocortin 4 receptor (human) (UniProt P32245); assay: cell-based or functional assay
human melanocortin 4 receptor (human), sequence (P32245 whole entry): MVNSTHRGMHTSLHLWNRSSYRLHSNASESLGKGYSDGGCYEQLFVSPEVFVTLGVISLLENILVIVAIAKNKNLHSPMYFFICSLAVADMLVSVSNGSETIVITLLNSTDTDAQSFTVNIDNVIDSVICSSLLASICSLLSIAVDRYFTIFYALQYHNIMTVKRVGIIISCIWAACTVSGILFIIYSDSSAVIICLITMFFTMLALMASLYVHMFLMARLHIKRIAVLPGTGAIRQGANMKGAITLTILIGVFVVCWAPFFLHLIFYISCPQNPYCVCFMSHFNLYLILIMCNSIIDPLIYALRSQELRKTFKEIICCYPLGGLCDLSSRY

[4] = target: human melanocortin 5 receptor (human) (UniProt P33032); assay: cell-based or functional assay
human melanocortin 5 receptor (human), sequence (P33032 whole entry): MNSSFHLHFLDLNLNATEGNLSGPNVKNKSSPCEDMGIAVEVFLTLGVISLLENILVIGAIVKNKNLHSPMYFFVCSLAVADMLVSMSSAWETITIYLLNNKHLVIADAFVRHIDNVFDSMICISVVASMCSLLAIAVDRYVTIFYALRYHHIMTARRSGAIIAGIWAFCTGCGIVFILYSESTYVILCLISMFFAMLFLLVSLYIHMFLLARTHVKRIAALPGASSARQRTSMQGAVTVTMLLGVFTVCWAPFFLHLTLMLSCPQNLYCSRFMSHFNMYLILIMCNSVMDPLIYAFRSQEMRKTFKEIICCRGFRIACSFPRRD

[5] = target: human melanocortin 1 receptor (human) (UniProt Q01726); assay: competition with 125I-NDP-α-MSH, cells expressing hMC1R
[6] = target: human melanocortin 3 receptor (human) (UniProt P41968); assay: competition with 125I-NDP-α-MSH, cells expressing hMC3R
[7] = target: human melanocortin 5 receptor (human) (UniProt P33032); assay: competition with 125I-NDP-α-MSH, cells expressing hMC5R
[8] = target: human melanocortin 4 receptor (human) (UniProt P32245); assay: competition with 125I-NDP-α-MSH on whole HEK293 cells expressing hMC4R
[9] = target: human melanocortin 4 receptor (human) (UniProt P32245); assay: plasmon waveguide resonance, hMC4R membranes
[10] = target: human melanocortin 4 receptor (human) (UniProt P32245); assay: competition with 125I-NDP-α-MSH on whole HEK293 cells expressing hMC4R; remark: listed apart in the source
[11] = target: human melanocortin 4 receptor (human) (UniProt P32245); assay: competition with 125I-NDP-α-MSH, ratio of IC50 values

human melanocortin 1 receptor (human), sequence (Q01726 whole entry): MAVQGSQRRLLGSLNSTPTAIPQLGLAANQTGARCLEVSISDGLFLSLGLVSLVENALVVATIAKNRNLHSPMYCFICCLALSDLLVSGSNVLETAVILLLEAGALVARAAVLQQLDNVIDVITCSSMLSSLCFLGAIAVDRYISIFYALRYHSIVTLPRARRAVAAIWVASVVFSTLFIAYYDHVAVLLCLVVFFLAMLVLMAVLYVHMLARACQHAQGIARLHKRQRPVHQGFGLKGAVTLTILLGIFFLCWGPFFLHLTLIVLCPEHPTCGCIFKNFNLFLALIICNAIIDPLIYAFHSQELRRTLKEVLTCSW

Row | Act % [1] [%] | EC50 (nM), cAMP accumulation [1] [nM] | Act % [2] [%] | EC50 (nM), cAMP accumulation [2] [nM] | Act % [3] [%] | EC50 (nM), cAMP accumulation [3] [nM] | Act % [4] [%] | EC50 (nM), cAMP accumulation [4] [nM] | BE % (percent NDP-α-MSH displacement at 10 µM) [5] [%] | IC50 [5] [nM] | BE % (percent NDP-α-MSH displacement at 10 µM) [6] [%] | IC50 [6] [nM] | BE % (percent NDP-α-MSH displacement at 10 µM) [7] [%] | BE% (percent [125I]NDP-α-MSH displacement at 10 µM) [8] [%] | IC50 [8] [nM] | IC50 [7] [nM] | Substance | other results
1 | 88 | 120 | 88 | 680 | 63 | > 1000 | 95 | 580 | 100 | 3 | 60 | 149 | 66 | 0 |  | 350 | Ac-Arg-cyclo[Asp-Pip-D-Phe-Arg-βTrp-Lys]-NH2 (peptide) | 
2 | 82 | 190 | 87 | 120 | 84 | 16 | 82 | 290 | 30 | 270 | 100 | 7 | 46 | 100 | 0.1 | 607 | Ac-Arg-cyclo[Asp-Pip-D-Phe-βArg-βTrp-Lys]-NH2 (peptide) | IC50 [10]: 1 nM
3 | 67 | 99 | 24 | > 1000 | 57 | 240 | 21 | > 1000 | 100 | 0.9 | 70 | 37 | 0 | 100 | 10 |  | Ac-Arg-cyclo[Asp-Pip-D-Phe(4-Cl)-Arg-βTrp-Lys]-NH2 (peptide) | 
4 | 61 | > 1000 | 49 | > 1000 | 120 | > 1000 | 51 | > 1000 | 0 |  | 39 | 396 | 90 | 59 | 248 | 59 | Ac-Arg-cyclo[Asp-Pip-D-Phe(4-F)-βArg-βTrp-Lys]-NH2 (peptide) | 

Continued, substance first:

Row | Substance | Act % [1] [%] | EC50 (nM), cAMP accumulation [1] [nM] | Act % [2] [%] | EC50 (nM), cAMP accumulation [2] [nM] | Act % [3] [%] | EC50 (nM), cAMP accumulation [3] [nM] | Act % [4] [%] | EC50 (nM), cAMP accumulation [4] [nM] | BE % (percent NDP-α-MSH displacement at 10 µM) [5] [%] | IC50 [5] [nM] | BE % (percent NDP-α-MSH displacement at 10 µM) [6] [%] | IC50 [6] [nM] | BE % (percent NDP-α-MSH displacement at 10 µM) [7] [%] | BE% (percent [125I]NDP-α-MSH displacement at 10 µM) [8] [%] | IC50 [8] [nM] | IC50 [7] [nM] | other results
5 | Ac-Arg-cyclo[Asp-Pip-D-Phe-βArg-Trp-Lys]-NH2 (peptide) | 120 | 220 | 89 | > 1000 | 67 | 47 | 90 | > 1000 | 100 | 0.1 | 24 | 600 | 0 | 100 | 0.4 |  | 
6 | Ac-Arg-cyclo[Asp-Pip-D-Phe(4-Cl)-βArg-Trp-Lys]-NH2 (peptide) | 89 | 130 | 46 | 360 | 66 | 110 | 38 | > 1000 | 100 | 5 | 100 | 108 | 0 | 100 | 8 |  | 
7 | Ac-Arg-cyclo[Asp-Pip-D-Phe(4-F)-Arg-βTrp-Lys]-NH2 (peptide) | 90 | 64 | 76 | 450 | 46 | 630 | 72 | 530 | 100 | 0.2 | 100 | 117 | 100 | 9 |  | 47 | 
8 | RM493 (peptide) |  |  |  |  |  |  |  |  |  |  |  |  |  |  |  |  | PWR left shift against hMC4R sole, p-polarization [9]: 0.25 degrees; PWR resonance position, s-polarization (sole MC4R 33.29) [9]: 33 degrees
9 | Ac-Arg-cyclo[Asp-Pip-D-Phe(4-Cl)-βArg-βTrp-Lys]-NH2 (peptide) | 90 | 240 | 63 | > 1000 | 87 | 4 | 76 | 295 | 100 | 27 | 10 |  | 75 | 100 | 0.4 | 70 | EC50 (cAMP) [3]: 4.2 nM; PWR resonance position, p-polarization (hMC4R sole 26.44) [9]: 26.9 degrees; fold higher binding affinity to hMC4R than hMC1R [11]: 68 fold; fold higher binding affinity to hMC4R than hMC3R [11]: > 1000 fold; fold higher binding affinity to hMC4R than hMC5R [11]: > 1000 fold
10 | Melanotan II, Ac-Nle-c[Asp-His-DPhe-Arg-Trp-Lys]-NH2 (peptide) | 100 | 32 | 100 | 3 | 100 | 10 | 100 | 2 | 100 | 7 | 100 | 9 | 100 | 100 |  | 6 | 
